# Source: article PMC8458385, “Molecular basis for PICS-mediated piRNA biogenesis and cell division” (Nature Communications, 2021)
# T1: PICS-1^5-282 (almost full-length PICS-1) (C. elegans, UniProt O76616 5-282)
# T1 construct: Cloned into pET28-MHL; Two copies in the 2:2:2 complex with ERH-2 and TOFU-6^RRM; source: E. coli BL21(DE3), purified (Ni-NTA, TEV cleavage, second Ni-NTA); not shown: His tag (inferred from the Ni-NTA purification), N-terminal, cleaved
# T1 sequence (looked up): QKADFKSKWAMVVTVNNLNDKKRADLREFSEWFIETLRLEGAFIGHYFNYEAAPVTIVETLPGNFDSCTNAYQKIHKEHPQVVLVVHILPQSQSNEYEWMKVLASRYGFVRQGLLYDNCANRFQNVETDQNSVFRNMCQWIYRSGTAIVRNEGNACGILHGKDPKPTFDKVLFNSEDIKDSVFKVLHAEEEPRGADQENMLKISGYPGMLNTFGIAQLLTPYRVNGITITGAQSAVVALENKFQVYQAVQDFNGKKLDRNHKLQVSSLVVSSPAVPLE
# T2: PICS-1^5-282 (C. elegans, UniProt O76616 5-282)
# T2 construct: Cloned into pET28-MHL; also called almost full-length PICS-1; source: E. coli BL21(DE3), purified (Ni-NTA, TEV, second Ni-NTA); not shown: His tag (from the Ni-NTA purification), N-terminal, cleaved
# T2 sequence (looked up): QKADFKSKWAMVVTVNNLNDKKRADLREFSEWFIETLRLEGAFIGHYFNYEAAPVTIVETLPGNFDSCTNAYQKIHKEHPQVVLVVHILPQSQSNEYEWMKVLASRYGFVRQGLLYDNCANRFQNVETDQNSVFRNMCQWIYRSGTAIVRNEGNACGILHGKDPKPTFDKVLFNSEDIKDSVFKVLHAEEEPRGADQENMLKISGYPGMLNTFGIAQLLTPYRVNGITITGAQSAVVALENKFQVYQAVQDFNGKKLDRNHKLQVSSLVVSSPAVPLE
# T3: ERH-2 (C. elegans, UniProt Q20057 1-113)
# T3 construct: ERH-2, C. elegans, amplified from a cDNA library; also called wild type ERH-2; source: E. coli BL21(DE3), purified (Ni-NTA, TEV, second Ni-NTA); not shown: His tag (from the Ni-NTA purification), N-terminal, cleaved
# T3 sequence (looked up): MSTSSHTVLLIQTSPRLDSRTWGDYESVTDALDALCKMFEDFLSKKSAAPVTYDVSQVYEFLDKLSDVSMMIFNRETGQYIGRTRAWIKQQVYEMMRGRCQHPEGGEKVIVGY
# T4: PICS-1^5-200 (PICS-1^ΔRRM) (C. elegans, UniProt O76616 5-200)
# T4 construct: PICS-1 (PID-3), C. elegans, residues 5-200 (lacks the RRM domain); Cloned into pET28-MHL; source: E. coli BL21(DE3), purified (Ni-NTA, TEV cleavage, second Ni-NTA); not shown: His tag (inferred from the Ni-NTA purification), N-terminal, cleaved
# T4 sequence (looked up): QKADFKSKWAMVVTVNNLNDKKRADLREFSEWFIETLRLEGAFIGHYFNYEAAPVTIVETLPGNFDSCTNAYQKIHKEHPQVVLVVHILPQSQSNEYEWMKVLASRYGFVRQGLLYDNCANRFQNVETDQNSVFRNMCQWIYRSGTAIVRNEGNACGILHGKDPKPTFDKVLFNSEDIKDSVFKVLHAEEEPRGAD
# T5: ERH-2^1-103-(Gly-Ser-Ser)7-PICS-1^180-200 fusion protein (C. elegans, UniProt Q20057 1-103; O76616 180-200)
# T5 construct: ERH-2, C. elegans, residues 1-103; 21-aa linker (Gly-Ser-Ser)7; PICS-1 (PID-3), C. elegans, EBM, residues 180-200; the methods describe only the 1-103 fusion; also called ERH-2-(GSS)7-PICS-1180-200; ERH-2-(GSS)7-PICS-1; source: E. coli BL21(DE3), purified (Ni-NTA, TEV cleavage, second Ni-NTA, Superdex 75); not shown: His tag (inferred from the Ni-NTA purification), N-terminal, cleaved
# T5 chain: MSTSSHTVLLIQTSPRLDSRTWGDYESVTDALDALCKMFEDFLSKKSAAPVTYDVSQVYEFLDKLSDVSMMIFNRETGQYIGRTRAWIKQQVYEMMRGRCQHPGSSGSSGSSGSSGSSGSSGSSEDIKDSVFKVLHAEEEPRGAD
# B1: TOFU-6^RRM (residues 2-92) (domain or fragment, C. elegans, UniProt Q09293 2-92, looked up)
# chain: ASSSTAYYLKDAGFHIRNIPKAWNDWNLFHVFQNFGKVSYCRVVGQSNDGQVQLGFVNMMSVADADEVRKNLNDGNLIGENFTLKVTDHKN
# notes: TOFU-6, C. elegans, RRM domain, residues 2-92; Gene codon-optimised and synthesised; for the crystal co-expressed with PICS-1^RRM from a modified pETDuet-1; also called TOFU-6 RRM domain; TOFU-6^C; source: E. coli BL21(DE3), purified (Ni-NTA, TEV, second Ni-NTA; complex with PICS-1^RRM also Superdex 75); not shown: His tag (from the Ni-NTA purification), N-terminal, cleaved
# B2: ERH-2 (natural protein, C. elegans, UniProt Q20057 1-113, looked up)
# chain: MSTSSHTVLLIQTSPRLDSRTWGDYESVTDALDALCKMFEDFLSKKSAAPVTYDVSQVYEFLDKLSDVSMMIFNRETGQYIGRTRAWIKQQVYEMMRGRCQHPEGGEKVIVGY
# notes: ERH-2, C. elegans, amplified from a cDNA library; also called ERH-2 wild type; source: E. coli BL21(DE3), purified (Ni-NTA, TEV cleavage, second Ni-NTA); not shown: His tag (inferred from the Ni-NTA purification), N-terminal, cleaved
# Assays:
# Details in all cases: both partners purified
# [1] = target: T1, PICS-1^5-282 (almost full-length PICS-1); assay: SEC; ERH-2 and TOFU-6^RRM mixed with PICS-1 5-282, PICS-1 5-200 or PICS-1 ΔEBM; Superose 6 Increase 10/300 GL; 20 mM Tris pH 8.5, 200 mM NaCl; peaks analysed by SDS-PAGE
# PICS-1^5-282 = target: T2, PICS-1^5-282; assay: SEC; ERH-2 and TOFU-6^RRM mixed with PICS-1 constructs, Superose 6 Increase 10/300 GL, 20 mM Tris hydrochloride pH 8.5, 200 mM NaCl; fractions on SDS-PAGE
# [2] = target: B1; assay: ITC; MicroCal ITC200, 25 °C, 20 mM Tris pH 8.5, 200 mM NaCl or 20 mM MES pH 6.5, 200 mM NaCl; 1–2 mM in the syringe into 30–50 μM in the cell; one-site binding model
# ERH-2 [3] = target: T3, ERH-2; assay: as above
# [4] = target: T4, PICS-1^5-200 (PICS-1^ΔRRM); assay: SEC; ERH-2 and TOFU-6^RRM mixed with PICS-1 5-282, PICS-1 5-200 or PICS-1 ΔEBM; Superose 6 Increase 10/300 GL; 20 mM Tris pH 8.5, 200 mM NaCl; peaks analysed by SDS-PAGE
# ERH-2 [5] = target: B2; assay: ITC; MicroCal ITC200, 25 °C; 20 mM Tris pH 8.5, 200 mM NaCl or 20 mM MES pH 6.5, 200 mM NaCl; 1-2 mM protein or peptide in the syringe titrated into 30-50 μM protein in the cell; one-site model; Kd mean ± SD of a minimum of two experiments
# [6] = target: T5, ERH-2^1-103-(Gly-Ser-Ser)7-PICS-1^180-20 …; assay: as above
binder,measurement,setting,value
"TOFU-6 RRM domain (TOFU-6^RRM, residues 2-92) (domain or fragment, C. elegans, UniProt Q09293 2-92, looked up, TOFU-6, C. elegans, RRM domain, residues 2-92; source: E. coli BL21(DE3), purified (Ni-NTA, TEV cleavage, second Ni-NTA); not shown: His tag (inferred from the Ni-NTA purification), N-terminal, cleaved) ASSSTAYYLKDAGFHIRNIPKAWNDWNLFHVFQNFGKVSYCRVVGQSNDGQVQLGFVNMMSVADADEVRKNLNDGNLIGENFTLKVTDHKN",binding result,[1],binds
B1,binding result,PICS-1^5-282,binds
"PICS-1^RRM F217E (domain or fragment, C. elegans, UniProt O76616 201-282, looked up, Cloned into pET28-MHL; the homodimer is disrupted by the mutation; source: E. coli BL21(DE3), purified (Ni-NTA, TEV, second Ni-NTA, Superdex 75); not shown: His tag (from the Ni-NTA purification), N-terminal, cleaved) QENMLKISGYPGMLNTEGIAQLLTPYRVNGITITGAQSAVVALENKFQVYQAVQDFNGKKLDRNHKLQVSSLVVSSPAVPLE",Kd,[2],0.57 µM
"NKRITLNERFGVLEKGYTIQA (domain or fragment, C. elegans, UniProt Q18490 34-54, looked up, TOST-1, C. elegans, residues 34-54; Cloned into pET28-SUMO; also called TOST-1 fragment; source: E. coli BL21(DE3), purified (Ni-NTA); not shown: SUMO, N-terminal, kept) [SUMO-fused TOST-1^34-54]",Kd,ERH-2 [3],3.2 µM
B2,binding result,[4],binds
same,binding result,[1],binds
"NKRITLNERFGVLEKGYTIQA (domain or fragment, C. elegans, UniProt Q18490 34-54, looked up, TOST-1, C. elegans, residues 34-54; Fused to the C-terminus of SUMO (pET28-SUMO); the Kds are for the SUMO fusion; also called TOST-1 fragment; source: E. coli BL21(DE3), purified (Ni-NTA); not shown: SUMO, N-terminal, kept) [SUMO-TOST-1^34-54]",stoichiometry N,ERH-2 [5],0.9
same,Kd,[6],4.9 µM
same,stoichiometry N,[6],0.9
